One assay concerns the target N6-I3 Ab (human). The assay can be described thus: SPR. (SPR reads the build-up and loss of mass on a sensor chip optically.)
In the next assay the target is N6-I2 Ab (human). The experiment in a line: SPR.

The results in this text go back to PMC13189263.

Usually Kd stands for the concentration at which binding is half-saturated. Lower therefore signals higher affinity.

As for BG505 MD39.3 SOSIP trimer, the Kd came out at 3 nM with N6-I3 Ab (human) and 5.7 nM in the assay with N6-I2 Ab (human).
